According to patent US20010016352, “NUCLEIC ACID SEQUENCES CONTROLLING LUNG CELL-SPECIFIC GENE EXPRESSION” (published 2001):

Experiments:
TTF-1 full length = molecular target: T1, TTF-1 full length (UniProt P23441); experiment: cell_activity; conditions: SV40-P F + pCMV-TTF-1 in H441, relative to SV40-P =1 (3.5 without TTF-1)
T1 sequence: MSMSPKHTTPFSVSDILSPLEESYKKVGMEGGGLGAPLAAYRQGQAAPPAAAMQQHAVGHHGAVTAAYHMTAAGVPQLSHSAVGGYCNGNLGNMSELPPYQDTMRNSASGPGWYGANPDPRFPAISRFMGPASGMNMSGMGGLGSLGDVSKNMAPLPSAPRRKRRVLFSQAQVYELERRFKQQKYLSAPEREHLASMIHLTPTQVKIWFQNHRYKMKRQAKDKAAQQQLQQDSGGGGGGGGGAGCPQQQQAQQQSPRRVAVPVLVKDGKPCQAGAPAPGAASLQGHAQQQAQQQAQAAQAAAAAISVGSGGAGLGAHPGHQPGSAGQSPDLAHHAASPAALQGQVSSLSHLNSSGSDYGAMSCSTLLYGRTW

[1] = molecular target: T2, TTF-1 homeodomain (TTF-1 HD) (Rattus norvegicus, UniProt P23441 P23441:161-220); experiment: EMSA; two complexes A' and B'; on ice, 5 mM MgCl2; conditions: tags: bacterially expressed homeodomain fragment; label: 32P
T2 sequence: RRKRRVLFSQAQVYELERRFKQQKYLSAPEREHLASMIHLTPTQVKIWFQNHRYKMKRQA
Protocol: The electrophoretic mobility shift assay (EMSA) was adapted from Hennighausen and Lubon, Meth. Enzymol., Vol. 152, pgs. 727-735 (1987). Briefly, nuclear extract (1-2 μl) and, when indicated, unlabeled oligonucleotide competitor DNA were preincubated in 20 μl Buffer C (12 mM HEPES, pH 7.9; 4 mM Tris-Cl pH 7.9; 25 mM KCl; 5 mM MgCl₂; 1 mM EDTA; 1 mM DTT; 50 ng μl⁻¹ poly[d(I-C)], Boehringer Mannheim; 0.2 mM fresh PMSF) for 10 minutes on ice. Probe (100,000 dpm) was added and incubated an additional 20 minutes on ice. For antibody supershift and interference assays, 1 μl of antibody was added after the addition of probe and incubated an additional 20 minutes on ice. TTF-1 antibody is described in Lazzaro et al., Development, Vol. 113, pgs. 1093-1104 (1991). HNF-3α, β, and γ antibodies were kindly provided by Dr. J. E. Darnell, Jr. (Lai et al., Genes and Devel., Vol. 5, pgs. 416-427 (1991)). Recombinant, bacterially expressed TTF-1 homeodomain protein (TTF-1 HD) is described in Guazzi et al., EMBO J., Vol. 9, pgs. 3631-3639 (1990). Assays were performed using 1 μl TTF-1 HD in place of nuclear extract. Bound and free probe were resolved using non-denaturing polyacrylamide gel electrophoresis. […]

[2] = molecular target: T2, TTF-1 homeodomain (TTF-1 HD); experiment: EMSA; conditions: tags: bacterially expressed homeodomain fragment; label: 32P

CAGGGCTTGCCCTGGGTTAAGAGCCAGGCAGGAAGCTCTCAAGAGCATTGCTCAGAGGGGGCCTGGGTGGCCCAGGGAGGGGATGCGAGGGGAACACCCAGGC (double strand) [hSP-B -439/-331 enhancer]
activity (TTF-1 full length): 8.3 fold

B1: SPB-f1 (dsDNA)
DNA 1: AGCACCTGGAGGGCTCTTCAGAGC
DNA 2: GCTCTGAAGAGCCCTCCAGGTGCT
binding result [1]: binds

B2: Ba wild type (dsDNA)
DNA 1: CAGGGCTTGCCCTGGGTTAAGAGCCAGGCA
DNA 2: TGCCTGGCTCTTAACCCAGGGCAAGCCCTG
binding result [2]: binds
